This passage reports Kd results from publication PMC3478540 (Diabetes, 2012).

The test deals with GRP78 in membrane fractions of mouse liver (mouse (endogenous in liver), UniProt P20029 20-655). The test can be described thus: radioligand binding.
Sequence of GRP78 in membrane fractions of mouse liver (P20029 20-655): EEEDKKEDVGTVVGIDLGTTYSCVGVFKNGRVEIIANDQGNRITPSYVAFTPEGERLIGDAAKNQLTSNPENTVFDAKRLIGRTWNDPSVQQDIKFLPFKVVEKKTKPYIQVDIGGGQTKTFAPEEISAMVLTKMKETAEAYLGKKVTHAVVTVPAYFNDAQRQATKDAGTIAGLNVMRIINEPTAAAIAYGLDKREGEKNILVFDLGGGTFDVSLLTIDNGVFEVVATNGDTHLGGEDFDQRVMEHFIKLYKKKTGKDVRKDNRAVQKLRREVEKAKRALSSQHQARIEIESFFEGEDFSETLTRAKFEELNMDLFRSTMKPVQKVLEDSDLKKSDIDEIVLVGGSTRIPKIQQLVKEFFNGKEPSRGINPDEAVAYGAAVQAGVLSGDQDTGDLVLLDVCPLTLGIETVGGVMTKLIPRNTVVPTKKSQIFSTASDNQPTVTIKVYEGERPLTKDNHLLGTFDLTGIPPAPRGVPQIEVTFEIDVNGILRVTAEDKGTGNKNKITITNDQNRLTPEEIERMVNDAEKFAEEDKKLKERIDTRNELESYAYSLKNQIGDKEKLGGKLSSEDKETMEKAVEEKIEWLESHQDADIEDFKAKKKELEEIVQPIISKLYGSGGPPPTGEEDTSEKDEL

B1: ^125I-vaspin (iodinated rhVaspin) (natural protein, human, UniProt Q8IW75 21-414, looked up)
chain: LKPSFSPRNYKALSEVQGWKQRMAAKELARQNMDLGFKLLKKLAFYNPGRNIFLSPLSISTAFSMLCLGAQDSTLDEIKQGFNFRKMPEKDLHEGFHYIIHELTQKTQDLKLSIGNTLFIDQRLQPQRKFLEDAKNFYSAETILTNFQNLEMAQKQINDFISQKTHGKINNLIENIDPGTVMLLANYIFFRARWKHEFDPNVTKEEDFFLEKNSSVKVPMMFRSGIYQVGYDDKLSCTILEIPYQKNITAIFILPDEGKLKHLEKGLQVDTFSRWKTLLSRRVVDVSVPRLHMTGTFDLKKTLSYIGVSKIFEEHGDLTKIAPHRSLKVGEAVHKAELKMDERGTEGAAGTGAQTLPMETPLVVKIDKPYLLLIYSEKIPSVLFLGKIVNPIGK
modifications: 125I-iodinated, residues not stated
As for B1, the Kd – broadly, the concentration at which binding is half-saturated – amounted to 22.2 nM.
